From patent US20240409647A1 (SINOMAB BIOSCIENCE, published 2024) come the findings set out here.

Assay [1] deals with T1, human IL-17RB protein (recombinant, R&D systems) (human).
T1 construct: Bought protein; also called hIL17RB
T1 sequence (Q9NRM6 whole entry, looked up): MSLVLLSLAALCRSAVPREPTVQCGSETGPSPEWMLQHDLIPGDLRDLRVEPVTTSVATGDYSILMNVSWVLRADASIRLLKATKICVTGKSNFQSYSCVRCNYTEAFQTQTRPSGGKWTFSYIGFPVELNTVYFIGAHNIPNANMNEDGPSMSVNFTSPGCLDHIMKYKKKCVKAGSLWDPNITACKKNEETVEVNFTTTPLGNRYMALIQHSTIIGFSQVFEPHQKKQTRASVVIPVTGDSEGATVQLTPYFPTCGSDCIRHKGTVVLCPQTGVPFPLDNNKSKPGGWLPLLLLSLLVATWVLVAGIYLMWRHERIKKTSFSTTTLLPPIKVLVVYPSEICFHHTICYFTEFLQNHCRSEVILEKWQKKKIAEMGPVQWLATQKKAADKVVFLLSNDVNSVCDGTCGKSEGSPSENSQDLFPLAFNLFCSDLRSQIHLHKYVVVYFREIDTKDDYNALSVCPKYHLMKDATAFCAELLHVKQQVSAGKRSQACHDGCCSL
Kind of assay: ELISA, coated receptor; SM17 at 0.08 µg/mL; well 1. For orientation: In an ELISA, binding on a coated surface is turned into a signal by an enzyme label.

Assay [2] has as its target T2, human IL-17 receptor subunit A (human, UniProt Q96F46 33-320).
T2 construct: also called IL17RA; hIL17RA
Kind of assay: ELISA, coated receptor; SM17 at 0.08 µg/mL; well 1.

Assay [3] addresses T3, human IL-17 receptor subunit D (human, UniProt Q8NFM7 28-299, limits assumed).
T3 construct: also called IL17RD; hIL 17RD
T3 sequence (looked up): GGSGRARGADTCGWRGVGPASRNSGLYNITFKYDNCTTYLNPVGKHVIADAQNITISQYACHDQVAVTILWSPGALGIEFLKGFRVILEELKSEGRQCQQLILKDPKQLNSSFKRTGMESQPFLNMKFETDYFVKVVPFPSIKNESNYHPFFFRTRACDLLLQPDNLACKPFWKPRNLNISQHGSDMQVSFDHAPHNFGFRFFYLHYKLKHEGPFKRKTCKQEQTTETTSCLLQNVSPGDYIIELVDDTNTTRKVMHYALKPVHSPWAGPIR
As to the kind of experiment: ELISA, coated receptor; SM17 at 0.08 µg/mL; well 1.

Assay [4] addresses T4, human IL-17 receptor subunit E (human, UniProt Q8NFR9 24-454, limits assumed).
T4 construct: also called hIL17RE
T4 sequence (looked up): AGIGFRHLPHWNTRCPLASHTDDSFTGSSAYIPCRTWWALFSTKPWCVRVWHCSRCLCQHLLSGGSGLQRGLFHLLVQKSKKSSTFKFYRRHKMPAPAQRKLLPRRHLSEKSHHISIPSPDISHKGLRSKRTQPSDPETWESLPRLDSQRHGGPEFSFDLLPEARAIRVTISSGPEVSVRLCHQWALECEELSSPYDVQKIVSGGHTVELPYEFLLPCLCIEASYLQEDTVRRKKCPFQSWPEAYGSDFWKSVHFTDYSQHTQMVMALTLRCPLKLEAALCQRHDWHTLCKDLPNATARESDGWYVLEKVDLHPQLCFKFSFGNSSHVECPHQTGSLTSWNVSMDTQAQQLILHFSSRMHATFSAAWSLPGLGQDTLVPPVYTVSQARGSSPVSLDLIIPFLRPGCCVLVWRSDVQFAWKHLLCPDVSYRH
As to the kind of experiment: ELISA, coated receptor; SM17 at 0.08 µg/mL; well 1.

Assay [5] addresses T5, human IL-17 receptor subunit C (human, UniProt Q8NAC3-2 21-467, limits assumed).
T5 construct: also called IL17RC; hIL17RC
T5 sequence (looked up): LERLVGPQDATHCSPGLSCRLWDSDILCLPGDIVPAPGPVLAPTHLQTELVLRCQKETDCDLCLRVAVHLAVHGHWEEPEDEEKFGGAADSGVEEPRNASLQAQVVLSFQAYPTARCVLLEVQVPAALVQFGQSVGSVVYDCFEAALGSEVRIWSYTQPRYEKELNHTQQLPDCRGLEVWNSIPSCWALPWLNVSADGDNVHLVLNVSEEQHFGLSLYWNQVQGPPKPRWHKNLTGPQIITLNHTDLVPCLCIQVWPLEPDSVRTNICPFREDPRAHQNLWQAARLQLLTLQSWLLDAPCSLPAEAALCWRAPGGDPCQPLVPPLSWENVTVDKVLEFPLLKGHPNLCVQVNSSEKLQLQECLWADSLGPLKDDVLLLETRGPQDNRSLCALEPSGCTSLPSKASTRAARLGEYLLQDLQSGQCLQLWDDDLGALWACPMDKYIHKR
Kind of assay: ELISA, coated receptor; SM17 at 0.08 µg/mL; well 1.

The target of assay [6] is T1, human IL-17RB protein (recombinant, R&D …). Kind of assay: ELISA, coated receptor; SM17 at 0.00064 µg/mL; well 2.
Assay [7] concerns the target T2, human IL-17 receptor subunit A. The assay is described as above.
The target in assay [8] is T3, human IL-17 receptor subunit D. Described as above.
The target of assay [9] is T4, human IL-17 receptor subunit E. The assay is described as above.
Assay [10] deals with T5, human IL-17 receptor subunit C. The description is as above.
Assay [11] deals with T1, human IL-17RB protein (recombinant, R&D …). Kind of assay: BLI (Octet RED96), SM17 captured via anti-human Fab CH1, IL17RB in solution; trial 1. For orientation: BLI is a label-free optical method that tracks binding on a fibre tip over time.
From the text: Irrelevant antibody (SM03, anti-human CD22 chimeric IgG1 antibody, SinoMab BioScience Limited) was used as the control reference.

B1: SM17 (antibody, human IgG4 S228P, kappa, V domains shown)
VH: QVQLVQSGAEVKKPGASVKVSCKASGYTFISYWMNWVRQAPGQGLEWMGRIDPYDSEIQYNQKFKDRVTMTRDTSISTAYMELSRLRSDDTAVYYCARSGGFDWFAYWGQGTLVTVSS
VL: DIQMTQSPSSLSASVGDRVTITCRASENINSNLAWYQQKPGKAPKLLLYDVTNLADGVPSRFSGSGSGTDYTLTISSLQPEDFATYYCQHFWGPPYTFGGGTKVEIKR
notes: other paragraphs and claim 15 call the same entries VH and VL; also called humanized anti-IL17RB monoclonal antibody
In general, Kd refers to the concentration at which binding is half-saturated. Usually koff stands for a measure of how fast the partners let go of each other. Broadly, the kon is a measure of how fast the partners come together. Take B1: the “OD 450 nm Absorption” value in assay [1] is 0.79 OD450; in assay [2], 0 OD450; in assay [3], 0.03 OD450; in [4], -0.04 OD450; in assay [5], 0.02 OD450; in assay [6], 0.07 OD450. Also, the “OD 450 nm Absorption” value in assay [7] is 0.05 OD450; in [8] it was 0.02 OD450; in assay [9], -0.16 OD450; in assay [10], 0.08 OD450. Further, the Kd in [11] came out at 194 pM. The koff in [11] is 4.3e-05 s⁻¹. For the same molecule, the kon in [11] was determined as 222000 M⁻¹ s⁻¹.
